Test results taken from patent US20240352434, “COMPOSITIONS COMPRISING A VARIANT CAS12I3 POLYPEPTIDE AND USES THEREOF” (Arbor Biotechnologies, Inc., published 2024).

T1: Cas12i3 S536R N711R S801R (Unidentified, S536R,N711R,S801R)
T1 chain: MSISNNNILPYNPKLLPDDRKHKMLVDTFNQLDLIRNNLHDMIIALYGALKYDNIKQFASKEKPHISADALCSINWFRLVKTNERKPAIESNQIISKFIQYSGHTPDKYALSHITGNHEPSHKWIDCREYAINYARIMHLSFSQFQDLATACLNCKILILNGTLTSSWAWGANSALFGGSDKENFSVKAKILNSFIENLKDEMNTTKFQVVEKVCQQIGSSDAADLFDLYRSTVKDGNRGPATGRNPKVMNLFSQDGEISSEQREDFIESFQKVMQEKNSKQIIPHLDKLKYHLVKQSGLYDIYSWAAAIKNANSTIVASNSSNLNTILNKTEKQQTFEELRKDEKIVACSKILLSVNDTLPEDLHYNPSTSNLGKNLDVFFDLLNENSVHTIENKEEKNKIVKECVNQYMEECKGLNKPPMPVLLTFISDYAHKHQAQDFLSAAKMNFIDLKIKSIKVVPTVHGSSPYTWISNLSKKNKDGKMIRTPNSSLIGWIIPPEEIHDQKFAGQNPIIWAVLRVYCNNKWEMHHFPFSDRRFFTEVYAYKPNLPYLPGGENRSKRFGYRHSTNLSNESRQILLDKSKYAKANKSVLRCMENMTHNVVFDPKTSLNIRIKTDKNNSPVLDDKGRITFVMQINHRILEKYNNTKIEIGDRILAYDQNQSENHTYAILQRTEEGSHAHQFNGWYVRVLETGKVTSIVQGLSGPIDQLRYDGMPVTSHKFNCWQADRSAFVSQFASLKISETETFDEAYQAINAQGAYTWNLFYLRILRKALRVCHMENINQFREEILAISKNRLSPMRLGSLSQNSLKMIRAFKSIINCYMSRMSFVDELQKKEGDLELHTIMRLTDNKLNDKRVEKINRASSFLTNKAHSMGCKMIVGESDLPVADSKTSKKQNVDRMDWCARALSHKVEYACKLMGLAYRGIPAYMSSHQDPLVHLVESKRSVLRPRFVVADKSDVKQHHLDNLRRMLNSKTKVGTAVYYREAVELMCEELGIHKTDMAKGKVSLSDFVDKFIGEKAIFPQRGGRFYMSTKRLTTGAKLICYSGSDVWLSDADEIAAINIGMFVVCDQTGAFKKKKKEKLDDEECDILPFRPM

T2: Cas12i3 S559R (Unidentified, S559R)
T2 chain: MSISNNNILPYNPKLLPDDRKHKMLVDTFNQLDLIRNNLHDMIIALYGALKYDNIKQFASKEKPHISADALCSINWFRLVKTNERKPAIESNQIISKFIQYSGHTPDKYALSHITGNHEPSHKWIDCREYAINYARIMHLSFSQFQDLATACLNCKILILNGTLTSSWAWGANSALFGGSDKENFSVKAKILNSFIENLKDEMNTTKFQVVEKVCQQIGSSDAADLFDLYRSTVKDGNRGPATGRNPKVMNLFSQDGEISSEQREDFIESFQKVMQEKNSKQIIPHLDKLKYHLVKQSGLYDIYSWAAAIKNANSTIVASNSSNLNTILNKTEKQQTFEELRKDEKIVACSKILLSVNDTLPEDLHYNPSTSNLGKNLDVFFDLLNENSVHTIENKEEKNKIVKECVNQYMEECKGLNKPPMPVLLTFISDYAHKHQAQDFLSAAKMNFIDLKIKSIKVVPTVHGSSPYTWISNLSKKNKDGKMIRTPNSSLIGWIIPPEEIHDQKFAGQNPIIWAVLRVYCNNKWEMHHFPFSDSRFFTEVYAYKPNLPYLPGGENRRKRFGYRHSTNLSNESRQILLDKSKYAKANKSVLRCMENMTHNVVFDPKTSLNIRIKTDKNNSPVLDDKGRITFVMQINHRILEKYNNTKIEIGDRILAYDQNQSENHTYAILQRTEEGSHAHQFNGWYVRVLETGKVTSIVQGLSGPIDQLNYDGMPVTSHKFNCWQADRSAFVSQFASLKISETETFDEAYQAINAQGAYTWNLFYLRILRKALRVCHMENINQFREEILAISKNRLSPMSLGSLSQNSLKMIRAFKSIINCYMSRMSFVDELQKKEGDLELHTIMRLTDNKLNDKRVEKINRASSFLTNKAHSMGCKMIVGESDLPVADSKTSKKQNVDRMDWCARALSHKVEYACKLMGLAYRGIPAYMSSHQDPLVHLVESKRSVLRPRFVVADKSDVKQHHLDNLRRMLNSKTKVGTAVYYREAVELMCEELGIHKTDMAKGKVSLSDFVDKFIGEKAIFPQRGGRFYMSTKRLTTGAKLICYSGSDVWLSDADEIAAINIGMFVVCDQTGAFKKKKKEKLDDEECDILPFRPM


How the values were obtained:
[1] = molecular target: T1, Cas12i3 S536R N711R S801R; experiment: cell_activity; fold change in % indels, HEK293T; PAM not stated in example
Method: (§1) Approximately 16 hours prior to transfection, 100 μl of 25,000 HEK293T cells in DMEM/10% FBS+Pen/Strep were plated into each well of a 96-well plate. On the day of transfection, the cells were 70-90% confluent. For each well to be transfected, a mixture of 0.5 μl of Lipofectamine 2000 and 9.5 μl of Opti-MEM was prepared and then incubated at room temperature for 5-20 minutes (Solution 1). […] In the case of negative controls, the crRNA was not included in Solution 2. The solution 1 and solution 2 mixtures were mixed by pipetting up and down and then incubated at room temperature for 25 minutes. Following incubation, 20 μL of the Solution 1 and Solution 2 mixture were added dropwise to each well of a 96 well plate containing the cells. 72 hours post transfection, cells are trypsinized by adding 10 μL of TrypLE to the center of each well and incubated for approximately 5 minutes. 100 μL of D10 media was then added to each well and mixed to resuspend cells. The cells were then spun down at 500 g for 10 minutes, and the supernatant was discarded. QuickExtract buffer was added to ⅕ the amount of the original cell suspension volume. Cells were incubated at 65° C. for 15 minutes, 68° C. for 15 minutes, and 98° C. for 10 minutes.
(§2) Samples for Next Generation Sequencing were prepared by two rounds of PCR. The first round (PCR1) was used to amplify specific genomic regions depending on the target. PCR1 products were purified by column purification. Round 2 PCR (PCR2) was done to add Illumina adapters and indexes. Reactions were then pooled and purified by column purification. Sequencing runs were done with a 150 cycle NextSeq v2.5 mid or high output kit.

[2] = molecular target: T2, Cas12i3 S559R; experiment: as above
Method: as §1, §2

| Binder | binding signal [1] | binding signal [2] |
| --- | --- | --- |
| AAVS1_T3 crRNA ; AAVS1_T3 target (ssRNA ; dsDNA) RNA: AUAGUGUGUCCUUAGUUGACAUGUGAGAAUGGUGCGUCCUAG DNA 1: GTGAGAATGGTGCGTCCTAG DNA 2: CTAGGACGCACCATTCTCAC | 2.1 fold of wild-type | 1.28 fold of wild-type |
| VEGFA_T2 crRNA ; VEGFA_T2 target (ssRNA ; dsDNA) RNA: AUAGUGUGUCCUUAGUUGACAUAAUCCUCCACCAGUCAUGGU DNA 1: AATCCTCCACCAGTCATGGT DNA 2: ACCATGACTGGTGGAGGATT | 2.55 fold of wild-type | 1.17 fold of wild-type |
| EMX1_T5 crRNA ; EMX1_T5 target (ssRNA ; dsDNA) RNA: AUAGUGUGUCCUUAGUUGACAUUAUUAUUCCCAUAGGGAAGG DNA 1: TATTATTCCCATAGGGAAGG DNA 2: CCTTCCCTATGGGAATAATA | 1.68 fold of wild-type | 0.95 fold of wild-type |
